# Measurements: article PMC10836841
# Target: PhiKo endolysin (Thermus thermophilus HB27 bacteriophage phiKo)
# Experiment: AUC; sedimentation velocity, 50,000 rpm, 4°C, 20 mM MES, 150 mM NaCl, pH 6.0, in the absence or presence of 20 mM DPC detergent; PhiKo endolysin 1.2 mg/mL; continuous c(s) distribution (SEDFIT); monomer to dimer
substance,measurement,value
PhiKo endolysin (enzyme),percent of the signal in the dimer peak (with 20 mM DPC),15%
same,percent of the signal in the dimer peak (without DPC),2.3%
same,stoichiometry N,2
